Molecular target: T1, Fab fragment of humanized monoclonal IgG (Infliximab) (Homo sapiens, UniProt P01834+P01857)
T1 construct: fragmented into a Fab fragment and an Fc fragment by using papain, and the Fc fragment and Fab fragment were purified; purchased Mitsubishi Tanabe Pharma Corporation Remicade (Infliximab)
Assay: Residual Fab-binding activity of GB1#-N08K after alkali treatment (Biacore SPR)
Conditions: 15 mM NaOH final (0.1 mL of 45 mM NaOH added to 0.2 mL of 20 μM peptide), 25° C., 2 hours; ratio to before treatment as 100%; N=4

T1 sequence (P01857 with tags, fused parts or gaps limits assumed, other chains not shown): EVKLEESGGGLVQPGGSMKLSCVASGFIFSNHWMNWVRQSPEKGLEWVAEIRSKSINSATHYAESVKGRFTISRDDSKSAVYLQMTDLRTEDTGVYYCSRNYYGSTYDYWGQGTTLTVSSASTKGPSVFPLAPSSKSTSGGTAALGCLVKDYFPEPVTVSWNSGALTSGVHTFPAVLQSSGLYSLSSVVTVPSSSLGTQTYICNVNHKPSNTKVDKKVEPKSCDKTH

Row | Substance | residual binding activity to Fab after alkali treatment [%]
1 | GB1#-N08K: GB1#-Cont (SEQ ID NO: 4), strong binding ability to Fab, with mutation N08K introduced; amino acid SEQ ID NO: 32 (TTYKLILKGKTLTGYTTTIAVDAATAEKVLKQFANDNGVDGEWTYDDATKTFTVTE; oligo DNA) | 80
2 | GB1#-N08A: Comparative example: GB1#-Cont (SEQ ID NO: 4) with mutation N08A; amino acid SEQ ID NO: 41 (TTYKLILAGKTLTGYTTTIAVDAATAEKVLKQFANDNGVDGEWTYDDATKTFTVTE; Altered SpG) | 68

— patent US20200031915A1, “IMMUNOGLOBULIN-BINDING PEPTIDE WITH IMPROVED STABILITY” (KANEKA CORPORATION, priority 2017, published 2020)
